From article PMC3303795, “Incorporation of Noncanonical Amino Acids into Rosetta and Use in Computational Protein-Peptide Interface Design” (PLoS ONE, 2012)
Read-outs that look alike come from different tables or passages of the source. Where a SMILES comes first, the peptide text is derived from it. [ ]: non-standard residue; d: D form. The star is where a group is joined. 5FAM = O=C1OC2(c3ccc(O)cc3Oc3cc(O)ccc32)c2ccc(C(=O)*)cc21; hSer = N[C@@H](CCO)C(=O)O; Nva = CCC[C@H](N)C(=O)O; Abu = CC[C@H](N)C(=O)O; βAla = NCCC(=O)O

Legend:
porcine calpain-1 = target: T1, porcine calpain-1 (Sus scrofa, UniProt P04574); assay: Fluorescence polarization binding assay of labelled calpastatin peptides with purified calpain; conditions: calpain titrated into 500 nM labelled peptide; 50 mM NaP, 50 mM NaCl, 5 mM BME, 1 mM CaCl2, 1 mM EDTA, pH 8.0; room temperature; 3 polarization readings averaged per concentration; single state binding model; read-out: Experimental KD
T1 construct: GST (N, cleaved yes); made in house; host or cells: E. coli (pET41b vector)
T1 sequence (P04574 94-266 limits assumed): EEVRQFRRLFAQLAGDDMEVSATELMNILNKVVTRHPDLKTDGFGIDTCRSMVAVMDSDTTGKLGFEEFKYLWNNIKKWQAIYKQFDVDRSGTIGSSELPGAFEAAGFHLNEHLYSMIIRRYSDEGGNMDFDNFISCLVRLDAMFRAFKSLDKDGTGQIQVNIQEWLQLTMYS
Procedure: Calpain was expressed as a GST-fusion protein in E. coli that had been transfected with a pet41b vector that contained the gene encoding porcine calpain-1. The cells were grown in Luria-Bertani broth with 50 ug/ml kanamycin at 37 degrees Celsius to an OD600 of 0.6 at which point 1 mM isopropyl β-D-1-thiogalactopyranoside (IPTG) was added to induce expression. Cells were grown for an additional 4 hours and harvested by centrifugation. Cells were resuspended in a buffer containing 50 mM NaPO4, 150 mM NaCl, 5 mM BME at pH 8.0 and lysed by sonication. Lysate was centrifuged at 12500 g for 30 minutes and the supernatant was run over a GSTrap-FF column that had been equilibrated with the lysis buffer. After loading, the column was washed with 10 column volumes of the lysis buffer before the GST-calpain was eluted with 50 mM Tris and 10 mM reduced glutithione, pH 8.0. The eluent was monitored by absorbance at 280 nm.5 mL fractions were collected. Those fractions which absorbed at 280 nm were pooled. Thrombin was added to separate the calpain from the GST and the cleavage reaction was allowed to cleave overnight at 4 Celsius. To remove the GST the protein was further purified with a Sephacryl S-200 gel filtration column using a buffer containing 50 mM NaPO4, 50 mM NaCl, 5 mM BME, 1 mM CaCl2, 1 mM EDTA at pH 8.0. The protein was concentrated through centrifugation via a spin column with a 15 K molecular weight cutoff and found to be pure and ran true to predicted size on SDS-PAGE gels.
Purified calpain was manually titrated in to a solution containing 500 nM calpastatin with 50 mM NaP, 50 mM NaCl, 5 mM BME, 1 mM CaCl2, 1 mM EDTA at pH 8.0, till the change in fluorescence polarization reached a plateau. Binding assays were performed at room temperature, 3 polarization readings were averaged for each concentration. Disassociation constants were calculated by fitting the data to a single state binding model using Sigma plot software.

[1] = target: T2, wild type calpastatin subdomain C peptide, FITC-labelled (FITC–βALA–…-amide); assay: fluorescence polarisation; purified calpain manually titrated into 500 nM labelled calpastatin peptide; 50 mM NaP, 50 mM NaCl, 5 mM BME, 1 mM CaCl2, 1 mM EDTA, pH 8.0; room temperature; single state binding model
T2 chain: PDDAIDALSDDFTS

[2] = target: T3, calpastatin peptide Ser607 to norvaline (5FAM–βALA–PDDAIDAL(NVL)DDFTS-amide); assay: as above
T3 chain: PDDAIDALXDDFTS

[3] = target: T4, calpastatin peptide Asp609 to 1-methyl-histidine (5FAM–βALA–…(1MH)FTS-amide); assay: as above
T4 chain: PDDAIDALSDHFTS

[4] = target: T5, calpastatin peptide Asp609 to homoserine (5FAM–βALA–…(HSE)–FTS-amide); assay: as above
T5 chain: PDDAIDALSDXFTS

[5] = target: T2, wild type calpastatin subdomain C …; assay: as above
[6] = target: T6, wild type calpastatin subdomain C peptide, 5FAM-labelled (5FAM–βALA–…-amide); assay: as above
T6 chain: PDDAIDALSDDFTS

[7] = target: T7, calpastatin peptide Phe610 to 4-methyl-phenylalanine (FITC–βALA–…(4MF)TS-amide); assay: as above
T7 chain: PDDAIDALSDDFTS

[8] = target: T8, calpastatin peptide Ser607 to amino butyric acid (5FAM–βALA–PDDAIDAL(ABU)DDFTS-amide); assay: as above
T8 chain: PDDAIDALXDDFTS

Which Kd (porcine calpain-1) does the source give for `CCC[C@H](NC(=O)[C@H](CC(C)C)NC(=O)[C@H](C)NC(=O)[C@H](CC(=O)O)NC(=O)[C@@H](NC(=O)[C@H](C)NC(=O)[C@H](CC(=O)O)NC(=O)[C@H](CC(=O)O)NC(=O)[C@@H]1CCCN1C(=O)CCNC(=O)c1ccc2c(c1)C(=O)OC21c2ccc(O)cc2Oc2cc(O)ccc21)[C@@H](C)CC)C(=O)N[C@@H](CC(=O)O)C(=O)N[C@@H](CC(=O)O)C(=O)N[C@@H](Cc1ccccc1)C(=O)N[C@H](C(=O)N[C@@H](CO)C(N)=O)[C@@H](C)O` [NVL (5FAM)] ({5FAM-βAla}-PDDAIDAL[Nva]DDFTS-NH2) here?
Its Kd is 8.56 ± 0.95 µM.

How did the Kd (porcine calpain-1) turn out when `CC[C@H](C)[C@H](NC(=O)[C@H](C)NC(=O)[C@H](CC(=O)O)NC(=O)[C@H](CC(=O)O)NC(=O)[C@@H]1CCCN1C(=O)CCNC(=O)c1ccc2c(c1)C(=O)OC21c2ccc(O)cc2Oc2cc(O)ccc21)C(=O)N[C@@H](CC(=O)O)C(=O)N[C@@H](C)C(=O)N[C@@H](CC(C)C)C(=O)N[C@@H](CO)C(=O)N[C@@H](CC(=O)O)C(=O)N[C@@H](CCO)C(=O)N[C@@H](Cc1ccccc1)C(=O)N[C@H](C(=O)N[C@@H](CO)C(N)=O)[C@@H](C)O` [HSE (5FAM)] ({5FAM-βAla}-PDDAIDALSD[hSer]FTS-NH2) was run?
Its Kd is 7.48 ± 0.68 µM.

For `CC[C@H](C)[C@H](NC(=O)[C@H](C)NC(=O)[C@H](CC(=O)O)NC(=O)[C@H](CC(=O)O)NC(=O)[C@@H]1CCCN1C(=O)CCNC(=O)c1ccc2c(c1)C(=O)OC21c2ccc(O)cc2Oc2cc(O)ccc21)C(=O)N[C@@H](CC(=O)O)C(=O)N[C@@H](C)C(=O)N[C@@H](CC(C)C)C(=O)N[C@@H](CO)C(=O)N[C@@H](CC(=O)O)C(=O)N[C@@H](CC(=O)O)C(=O)N[C@@H](Cc1ccccc1)C(=O)N[C@H](C(=O)N[C@@H](CO)C(N)=O)[C@@H](C)O` [WT (5FAM), reference compound] ({5FAM-βAla}-PDDAIDALSDDFTS-NH2), which Kd (porcine calpain-1) is on record?
The Kd was 6.6 ± 0.65 µM.

With `CC[C@H](NC(=O)[C@H](CC(C)C)NC(=O)[C@H](C)NC(=O)[C@H](CC(=O)O)NC(=O)[C@@H](NC(=O)[C@H](C)NC(=O)[C@H](CC(=O)O)NC(=O)[C@H](CC(=O)O)NC(=O)[C@@H]1CCCN1C(=O)CCNC(=O)c1ccc2c(c1)C(=O)OC21c2ccc(O)cc2Oc2cc(O)ccc21)[C@@H](C)CC)C(=O)N[C@@H](CC(=O)O)C(=O)N[C@@H](CC(=O)O)C(=O)N[C@@H](Cc1ccccc1)C(=O)N[C@H](C(=O)N[C@@H](CO)C(N)=O)[C@@H](C)O` [ABU (5FAM)] ({5FAM-βAla}-PDDAIDAL[Abu]DDFTS-NH2) as the molecule, how does the Kd (porcine calpain-1) read?
Its Kd is 5.8 ± 1.2 µM.

B1: porcine calpain-1 (enzyme)
chain: T1 sequence (P04574 94-266 limits assumed)
modifications: not checked
Which results are given for B1?
Kd [1]: 5800 µM; Kd [2]: 8.56 µM; Kd [3]: 5.81 µM; Kd [4]: 7.48 µM; Kd [5]: 5.77 µM; Kd [6]: 6.6 µM; Kd [7]: 2.6 µM; Kd [8]: 5.8 µM
